According to paper PMC9519457 (Nature Microbiology, 2022):

Legend:
Experiment in all cases: BLI
Settings in all cases: both partners purified
SARS-CoV-2 wild-type RBD [1] = target: T1, SARS-CoV-2 wild-type RBD (SARS-CoV-2 wild type)
SARS-CoV-2 wild-type RBD [2] = target: T1, SARS-CoV-2 wild-type RBD; remark: listed apart in the source
SARS-CoV-2 wild-type RBD [3] = target: T1, SARS-CoV-2 wild-type RBD; remark: listed apart in the source
[4] = target: SARS-CoV-2 RBD (residues 319-541), wild type (SARS-CoV-2, wild type, UniProt P0DTC2)
SARS-CoV-2 wild-type RBD [5] = target: T1, SARS-CoV-2 wild-type RBD; remark: listed apart in the source

Row | Binder | Kd (SARS-CoV-2 wild-type RBD [1]) [nM] | koff (SARS-CoV-2 wild-type RBD [1]) [s⁻¹] | kon (SARS-CoV-2 wild-type RBD [1]) [M⁻¹ s⁻¹] | other results
1 | C978 (antibody, V domains shown, human IgG1) VH: QVQLVQSGAEVKKPGSSVKVSCKASGATFSNYIISWVRQAPGQGLEWMGRTIPLLDIANYAQKFQGRVTITADKSTRIVYMHLGSLTSEDTAVYYCATGKGYSSSSAAYYFDHWGQGTLVTVSS VL: QSVLTQPPSVSGAPGQRVTISCTGTNSNIGAGYDIHWYQQLPGTAPKLLIYGSNNRPSGVPDRFSGSKSGTSASLAITGLQAEDEADYYCQSYDSSLSGSEVFGGGTKLTVL | 0.99 | 0.000524 | 531000 | –
2 | R1-32 (antibody, V domains shown, human IgG1) VH: EVQLVESGAEVKKPGSSVKVSCKASGGTFSSYAISWVRQAPGQGLEWMGGIIPILGIANYAQKFQGRVTITADKSTSTAYMELSSLRSEDTAVYYCARENGYSGYGAAANFDLWGRGTLVTVSS VL: QSVLTQPPSVSGAPGQRVTISCTGSSSNIGAGYDVHWYQQLPGTAPKLLIYGNSNRPSGVPDRFSGSKSGTSASLAITGLQAEDEADYYCQSYDSSLSGSVFGGGTKLTVL | – | – | – | Kd (SARS-CoV-2 wild-type RBD [2]): 2.8 nM; koff (SARS-CoV-2 wild-type RBD [2]): 0.00149 s⁻¹; kon (SARS-CoV-2 wild-type RBD [2]): 533000 M⁻¹ s⁻¹; koff (SARS-CoV-2 wild-type RBD [3]): 0.000376 s⁻¹; kon (SARS-CoV-2 wild-type RBD [3]): 472000 M⁻¹ s⁻¹
3 | C091 (antibody, V domains shown, human IgG1) VH: QVQLVQSGAEVKKPGSSVKVSCKASGGTFSSYTISWVRQAPGQGLEWMGRIIPILGIANYAQKFQGRVTITADKSTSTAYMELSSLRSEDTAVYYCARDSGYSGYGSTYYMDVWGKGTTVTVSS VL: QSVLTQPPSVSGAPGQRVTISCTGSSSNIGAGYDVHWYQQLPGTAPKLLIYGNSNRPSGVPDRFSGSKSGTSASLAITGLQAEDEADYYCQSYDSSLSGSVFGTVTKVTVL | 9.75 | 0.00337 | 346000 | –
4 | C832 (antibody, V domains shown, human IgG1) VH: QVQLVQSGAEVKKPGSSVKVSCKASGGTFSSYSISWVRQAPGQGLEWMGRIIPILGIASYAQKFQGRVTITADKSTSTVYMELTGLRSDDTAVYYCARDRGYSDYGSHYYMDVWGKGTTVTVSS VL: QSVLTQPPSVSGAPGQRVTISCTGSSSNIGAGYDVHWYQQLPGTAPKLLIYINSNRPSGVPDRFSGSKSGTSASLAITGLQAEDEADYYCQSYDSSLSDSVFGGGTKLTVL | 0.63 | 0.000246 | 387000 | –
5 | C807 (antibody, V domains shown, human IgG1) VH: QVQLVQSGAEAKKPGSSVKVSCKASGGTFKSYIINWVRQAPGQGLEWMGEIIPIFGTANYAQKFQGRVTSTADESTSTAYMELSSLKSEDTAVYYCARGRGYSGYGASYYFDYWGQGTLVTVSS VL: QSVLTQPPSVSGAPGQRVTISCTGSNSNIGAGYDVHWYQQLPGTAPKLLIYANSNRPSGVPDRFSGSKSGTSASLAITGLQAEDEADYYCQSYDSGLSGSVFGGGTKLTVL | 0.79 | 0.000431 | 547000 | –
6 | R1-32 (human IgG1 monoclonal antibody) (antibody, V domains shown) VH: EVQLVESGAEVKKPGSSVKVSCKASGGTFSSYAISWVRQAPGQGLEWMGGIIPILGIANYAQKFQGRVTITADKSTSTAYMELSSLRSEDTAVYYCARENGYSGYGAAANFDLWGRGTLVTVSS VL: QSVLTQPPSVSGAPGQRVTISCTGSSSNIGAGYDVHWYQQLPGTAPKLLIYGNSNRPSGVPDRFSGSKSGTSASLAITGLQAEDEADYYCQSYDSSLSGSVFGGGTKLTVL | – | – | – | Kd [4]: 0.8 nM
7 | C092 (antibody, V domains shown, human IgG1) VH: QVQLVQSGAEVKKPGSSVKVSCKASGGSFTNHFISWVRQAPGQGLEWMGRIIPILGTANYAQNFQGRVMMTADKSTSTAYMELSSLRSEDTAVYYCARDSGYSGYGSTYYMDVWGKGTTVTVSS VL: QSVLTQPPSVSGAPGQRVTISCTGSNSNIGAGYDVHWYQQLPGAAPKLLIYGNNNRPSGVPDRFSGSKSDTSASLAITGLQVEDEADYYCQSYDSSLSDSVFGSGTKVTVL | 0.16 | 0.000103 | 642000 | –
8 | C963 (antibody, V domains shown, human IgG1) VH: QVQLVQSGAEVKKPGSSVRVSCKASGGTFSSFTITWVRQAPGQGLEWMGRIIPNLNIPNYAQRFQGRITITAEKSTSTAYLELSSLRSEDTAVYYCARGVGYSGSGSNWYFDLWGRGTLVTVSS VL: QSVLTQPPSVSGAPGQRVTISCTGSSSNIGAGYDVHWYQQLPGTAPKLLISGHINRPSGVPDRFSGSTSGTSASLAITGLQAEDEADYYCQSYDSSLSDSVFGGGTKLTV | 0.84 | 0.000593 | 709000 | –
9 | C941 (antibody, V domains shown, human IgG1) VH: QVQLVQSGAEVKKPGSSVKVSCKASGGTSRSYPISWVRQAPGQGLEWMGRIIPIVGTANYAQRFQGRVTITADESTGTAYMELSSLRSEDTAVYYCARNRGYSDYGSVYYFDYWGQGTLVTVSS VL: QSVLTQPPSVSGAPGQRVTISCTGSSSNIGAGYDVHWYQQLPGAAPKLLIYRNINRPSGVPDRFSGSKSGTSASLAITGLQADDEADYYCQSYDSSLSGSVFGGGTKLTV | 0.77 | 0.000117 | 153000 | –
10 | FC08 (antibody, V domains shown) VH: QLLQQSGAEVKKPGSSVKVSCKASGGTFSSYAISWVRQAPGQGLEWMGGIIPIIGIANYAQKFQGRVTITADKSTSTAYMELSSLRSEDTAVYYCARERGYSGYGAAYYFDYWGQGTLVTVSS VL: SVLTQPPSVSGAPGQRVTISCTGSSSNIGAGYDVHWYQQLPGTAPKLLIYGNSNRPSGVPDRFSGSKSGTSASLAITGLQAEDEADYYCQSYDSSLSGSVFGGGTKLTVL | – | – | – | Kd (SARS-CoV-2 wild-type RBD [5]): 0.35 nM; koff (SARS-CoV-2 wild-type RBD [5]): 0.00028 s⁻¹; kon (SARS-CoV-2 wild-type RBD [5]): 797000 M⁻¹ s⁻¹
